This note sets out measurements from publication PMC12551112, “Exploration into the MLL4/WRAD Enzyme-Substrate Network: Systematic In Vitro Identification of CFP1 as a Potential Non-Histone Substrate of the MLL4 Lysine Methyltransferase” (Epigenomes, 2025).

Ends that are not written are not given here. Me3 = trimethyl-lysine; Me2 = dimethyl-lysine

Common to all, as to assay: peptide or protein array; SPOT peptides on cellulose membrane; 1 μM 6xHis-tagged MLL4 PHD cassette in TBS-T overnight at 4 °C; probed with anti-6xHis-HRP, chemiluminescence; signals relative to the H4K20me0 peptide (100%), spots of at least 50% taken as candidate binders
Holding throughout (conditions): both partners purified

Assay [1] has as its target T1, MLL4 PHD4–6 (residues 1358–1572) (UniProt O14686 1358-1572).
T1 construct: MLL4 (KMT2D, ALR), PHD fingers 4–6, residues 1358–1572; Detected on the array with anti-6xHis-HRP; The purification of the PHD constructs is not described separately; also called MLL4 PHD4–6 cassette; KMT2D PHD4–6; source: bacterially expressed recombinant

In assay [2] the target is T2, MLL4 PHD1–3 (residues 156–341) (UniProt O14686 156-341).
T2 construct: MLL4 (KMT2D, ALR), PHD fingers 1–3, residues 156–341; Detected on the array with anti-6xHis-HRP; The purification of the PHD constructs is not described separately; also called MLL4 PHD1–3 cassette; KMT2D PHD1–3; source: bacterially expressed recombinant
T2 sequence (looked up): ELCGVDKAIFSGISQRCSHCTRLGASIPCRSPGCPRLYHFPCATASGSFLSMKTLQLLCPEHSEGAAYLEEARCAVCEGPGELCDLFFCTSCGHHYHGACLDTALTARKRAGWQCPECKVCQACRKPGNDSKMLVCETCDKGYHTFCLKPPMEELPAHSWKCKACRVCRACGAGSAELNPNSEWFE

Assay [3] has as its target T3, MLL4 PHD7 (residues 5079–5152) (UniProt O14686 5079-5152).
T3 construct: MLL4 (KMT2D, ALR), PHD finger 7, residues 5079–5152; Detected on the array with anti-6xHis-HRP; The purification of the PHD constructs is not described separately; also called KMT2D PHD7; source: bacterially expressed recombinant

T1 sequence (O14686 1358-1572): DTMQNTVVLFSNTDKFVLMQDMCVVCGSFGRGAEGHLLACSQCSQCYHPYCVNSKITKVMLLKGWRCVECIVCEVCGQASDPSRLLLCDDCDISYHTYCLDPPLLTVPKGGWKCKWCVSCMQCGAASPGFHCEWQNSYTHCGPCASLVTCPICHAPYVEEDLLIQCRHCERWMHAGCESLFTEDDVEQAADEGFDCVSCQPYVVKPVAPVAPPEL
T3 sequence (O14686 5079-5152): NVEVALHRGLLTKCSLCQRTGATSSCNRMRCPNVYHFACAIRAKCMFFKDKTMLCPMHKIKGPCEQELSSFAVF

B1: CFP1 K340me3 peptide (peptide, UniProt Q9P0U4 330-350, looked up)
peptide: VKRREKKSEKK(Me3)KEERYKRHRQ
notes: CFP1 (CXXC finger protein 1), human, peptide centred on K340 with 10 flanking residues on each side; held on the cellulose membrane of the array; source: synthetic peptide, SPOT synthesis on cellulose membrane
In the case of B1, the binding result in assay [1] is given as “binds”.

B2: CFP1 K335me0 peptide (peptide, UniProt Q9P0U4 325-345, looked up)
peptide: VKVKHVKRREKKSEKKKEERY
notes: CFP1 (CXXC finger protein 1), human, peptide centred on K335 with 10 flanking residues on each side; held on the cellulose membrane of the array; also called unmethylated K335; source: synthetic peptide, SPOT synthesis on cellulose membrane
As for B2, the binding result in assay [2], in assay [1] and in assay [3] was “binds” in each case.

B3: CFP1 K335me1 peptide (peptide, UniProt Q9P0U4 325-345, looked up)
peptide: VKVKHVKRREK(Me)KSEKKKEERY
notes: CFP1 (CXXC finger protein 1), human, peptide centred on K335 with 10 flanking residues on each side; held on the cellulose membrane of the array; source: synthetic peptide, SPOT synthesis on cellulose membrane
In the case of B3, the binding result in assay [2] and in assay [1] was “binds” each time.

B4: CFP1 K339me1 peptide (peptide, UniProt Q9P0U4 329-349, looked up)
peptide: HVKRREKKSEK(Me)KKEERYKRHR
notes: CFP1 (CXXC finger protein 1), human, peptide centred on K339 with 10 flanking residues on each side; held on the cellulose membrane of the array; source: synthetic peptide, SPOT synthesis on cellulose membrane
B4: in assay [2], the binding result is on record as “binds”.

B5: CFP1 K335me2 peptide (peptide, UniProt Q9P0U4 325-345, looked up)
peptide: VKVKHVKRREK(Me2)KSEKKKEERY
notes: as for B3
In the case of B5, the binding result in assay [2] and in assay [1] was “binds” each time.

B6: CFP1 K335me3 peptide (peptide, UniProt Q9P0U4 325-345, looked up)
peptide: VKVKHVKRREK(Me3)KSEKKKEERY
notes: as for B3
For the molecule B6, the binding result in assay [2] and in assay [1] was “binds” each time.

B7: CFP1 K351me2 peptide (peptide, UniProt Q9P0U4 341-361, looked up)
peptide: KEERYKRHRQK(Me2)QKHKDKWKHP
notes: CFP1 (CXXC finger protein 1), human, peptide centred on K351 with 10 flanking residues on each side; held on the cellulose membrane of the array; source: synthetic peptide, SPOT synthesis on cellulose membrane
Regarding B7, the binding result in assay [1] was “binds”.

B8: CFP1 K331me1 peptide (peptide, UniProt Q9P0U4 321-341, looked up)
peptide: RKRAVKVKHVK(Me)RREKKSEKKK
notes: CFP1 (CXXC finger protein 1), human, peptide centred on K331 with 10 flanking residues on each side; held on the cellulose membrane of the array; also called K331 Kme1; source: synthetic peptide, SPOT synthesis on cellulose membrane
For the molecule B8, the binding result in assay [2] was “binds”.
